T1: recombinant protein of the hDlk-1 extracellular region (hDlk-1-His) (human, UniProt P80370 24-303)
T1 construct: not shown: His tag
T1 sequence: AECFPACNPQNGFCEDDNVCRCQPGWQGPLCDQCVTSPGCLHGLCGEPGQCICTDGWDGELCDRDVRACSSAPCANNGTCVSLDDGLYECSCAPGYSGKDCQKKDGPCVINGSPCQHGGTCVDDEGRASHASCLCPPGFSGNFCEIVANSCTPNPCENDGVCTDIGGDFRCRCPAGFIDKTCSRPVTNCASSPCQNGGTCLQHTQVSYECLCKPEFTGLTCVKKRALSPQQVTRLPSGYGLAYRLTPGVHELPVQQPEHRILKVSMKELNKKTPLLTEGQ

B1: humanized BA-1-3D IgG1/κ antibody (HuBA-1-3D-1) (antibody, V domains shown)
VH: QVQLVQSGAEVKKPGASVKVSCKASGYTFTDYAMHWVRQAPGQGLEWIGVISTYYGNTNYNQKFKGKATMTVDTSTSTAYMELRSLRSDDTAVYYCARGGLREYYYAMDYWGQGTMVTVSS
VL: DIVMTQSPDSLAVSLGERATINCKSSQSLLNSSNQKNYLAWYQQKPGQPPKLLVYFASTRESGVPDRFSGSGSGTDFTLTISSLQAEDVAVYYCQQHYSTPPTFGQGTKLEIKR
B2: HuBA-1-3D-1-A24G/T73K (antibody, human IgG1, kappa, V domains shown)
VH: QVQLVQSGAEVKKPGASVKVSCKGSGYTFTDYAMHWVRQAPGQGLEWIGVISTYYGNTNYNQKFKGKATMTVDKSTSTAYMELRSLRSDDTAVYYCARGGLREYYYAMDYWGQGTMVTVSS
VL: DIVMTQSPDSLAVSLGERATINCKSSQSLLNSSNQKNYLAWYQQKPGQPPKLLVYFASTRESGVPDRFSGSGSGTDFTLTISSLQAEDVAVYYCQQHYSTPPTFGQGTKLEIKR
notes: human IgG1/κ; also called A24G/T73K mutant; HuBA-1-3D-A24G/T73K
B3: humanized BA-1-3D IgG1/κ antibody (HuBA-1-3D-2) (antibody, V domains shown)
VH: QVQLVQSGAEVKKPGASVKVSCKASGYTFTDYAMHWVRQAPGQGLEWIGVISTYYGNTNYNQKFKGRATMTVDTSTSTAYMELRSLRSDDTAVYYCARGGLREYYYAMDYWGQGTMVTVSS
VL: DIVMTQSPDSLAVSLGERATINCKSSQSLLNSSNQKNYLAWYQQKPGQPPKLLVYFASTRESGVPDRFSGSGSGTDFTLTISSLQAEDVAVYYCQQHYSTPPTFGQGTKLEIKR
B4: mouse-human chimeric BA-1-3D IgG1/κ antibody (ChBA-1-3D) (antibody, V domains shown)
VH: QVQLQQSGPELVRPGVSVKISCKGSGYTFTDYAMHWVKQSHAKSLEWIGVISTYYGNTNYNQKFKGKATMTVDKSSSTAYMELARLTSEDSAIYYCARGGLREYYYAMDYWGQGTSVTVSS
VL: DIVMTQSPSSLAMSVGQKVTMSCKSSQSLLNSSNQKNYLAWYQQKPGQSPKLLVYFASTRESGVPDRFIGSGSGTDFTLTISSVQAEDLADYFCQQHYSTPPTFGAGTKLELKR

Assays:
[1] = molecular target: T1, recombinant protein of the hDlk-1 …; assay: ELISA second format: hDlk-1-His coated at 0.5 µg/ml, antibody titrated from 5 µg/ml
Experimental: As a second format of ELISA, hDlk-1-His, which had been diluted with PBS to a concentration of 0.5 μg/ml, was added in an amount of 100 μl/well to a 96-well plate, followed by coating at 4° C. overnight. The plate was washed with a washing buffer, and it was then blocked with a blocking buffer. Thereafter, the plate was washed with a washing buffer again. […] Thereafter, a color reaction was carried out by the same method as described above.

[2] = molecular target: T1, recombinant protein of the hDlk-1 …; assay: ELISA third format: hDlk-1-His coated at 0.05 µg/ml, purified antibodies
Experimental: As a third format of ELISA, hDlk-1-His to be coated on a 96-well plate was diluted to a concentration of 1/10, and 0.05 μg/ml hDlk-1-His was then added in an amount of 100 μl/well to the 96-well plate, followed by coating at 4° C. overnight, so as to produce an ELISA plate coated with a low concentration of hDlk-1-His.

Binder	EC50 [1]	EC50 [2]
B1	0.148 µg/mL	
B2		0.0355 µg/mL
B3	0.154 µg/mL	
B4	0.116 µg/mL	0.0254 µg/mL
